Laboratory results reported in patent US20240270821A1, “GIP/GLP1/GCG TRI-RECEPTOR AGONISTS AND USES THEREOF” (priority 2023, published 2024).
Substitutions are numbered along the chain they refer to. Starred links: 1 amine or outer side, 2 acyl side, 3 side chain; linkers in the order of their positions; H or OH if unused. Non-standard residues stand in square brackets, D forms with d. Groups on a side chain read outwards from the residue. No end group written: not given here. *: point of attachment. C18 diacid = O=C(O)CCCCCCCCCCCCCCCCC(=O)*; γGlu = O=C(O)[C@H](CCC(=O)[*:2])N[*:1]; αMe4Pal = C[C@](N)(Cc1ccncc1)C(=O)O; 4Pal = N[C@@H](Cc1ccncc1)C(=O)O; αMeL = CC(C)C[C@](C)(N)C(=O)O; Orn = NCCC[C@H](N)C(=O)O; Dab = NCC[C@H](N)C(=O)O; Aib = CC(C)(N)C(=O)O

B1: Example 1056 (peptide)
chain: YXQGTFTSDXSQXLDXKAQXAFIEYLLAGGPSSGAPPPSGSEE
modifications: non-natural residues; lipidated Lys; C-terminal amide; synthetic construct; SITE 2: note = 2-Aminoisobutyric Acid; SITE 10: note = 3-(4-Pyridyl)-L-alanine; SITE 13: note = alpha-methyl-leucine; SITE 16: note = L-ornithine; SITE 17: note = Lysine is chemically modified through conjugation of the epsilon-amino group of the Lysine side chain with (gamma-Gl)
B2: Example 1057 (peptide)
chain: B1 chain
modifications: non-natural residues, lipidated Lys, C-terminal amide; synthetic construct; SITE 2: note = 2-Aminoisobutyric Acid; SITE 10: note = 3-(4-Pyridyl)-L-alanine; SITE 13: note = alpha-methyl-leucine; SITE 16: note = L-ornithine; SITE 17: note = Lysine is chemically modified through conjugation of the epsilon-amino group of the Lysine side chain with (Glu)-(ga)
B3: Example 1058 (peptide)
chain: B1 chain with Y25X, A28E
modifications: non-natural residues; lysine acylated γGlu-C18 diacid; C-terminal amide; synthetic construct; SITE 2: note = 2-Aminoisobutyric Acid; SITE 10: note = 3-(4-Pyridyl)-L-alanine; SITE 13: note = alpha-methyl-leucine; SITE 16: note = L-ornithine; SITE 17: note = Lysine is chemically modified through conjugation of the epsilon-amino group of the Lysine side chain with D-Glutami
B4: Example 1059 (peptide)
chain: B1 chain with Q12X, L27I
modifications: acylated Lys, C-terminal amide, non-natural residues; synthetic construct; SITE 2: note = 2-Aminoisobutyric Acid; SITE 10: note = 3-(4-Pyridyl)-L-alanine; SITE 12: note = L-ornithine; SITE 13: note = alpha-methyl-leucine; SITE 16: note = L-ornithine; SITE 17: note = Lysine is chemically modified through conjugation of the epsilon-amino group of the Lys
B5: Example 1060 (peptide)
chain: B1 chain with Q12X, X16K, L27I
modifications: Aib, 4Pal, Orn, αMeL, Me4Pal; acylated Lys; C-terminal amide; synthetic construct; SITE 2: note = 2-Aminoisobutyric Acid; SITE 10: note = 3-(4-Pyridyl)-L-alanine; SITE 12: note = L-ornithine; SITE 13: note = alpha-methyl-leucine; SITE 17: note = Lysine is chemically modified through conjugation of the epsilon-amino group of the Lysine side chain with (Glu)-(ga)
B6: Example 1061 (peptide)
chain: B1 chain with Q12X, L27I
modifications: non-natural residues, C-terminal amide, acylated Lys with fatty diacid; synthetic construct; SITE 2: note = 2-Aminoisobutyric Acid; SITE 10: note = 3-(4-Pyridyl)-L-alanine; SITE 12: note = …; SITE 13: note = alpha-methyl-leucine; SITE 16: note = L-ornithine; SITE 17: note = Lysine is chemically modified through conjugation of the epsilon-amino group of the Lys
B7: Example 1062 (peptide)
chain: B1 chain with Q12X, L27I
modifications: C-terminal amide; lysine acylated with (Glu)2-γ-Glu-C18 diacid; synthetic construct; SITE 2: note = 2-Aminoisobutyric Acid; SITE 10: note = 3-(4-Pyridyl)-L-alanine; SITE 12: note = L-ornithine; SITE 13: note = alpha-methyl-leucine; SITE 16: note = L-ornithine; SITE 17: note = Lysine is chemically modified through conjugation of the epsilon-amino group of the Lys
B8: Example 1063 (peptide)
chain: B1 chain with Q12X, L27I
modifications: Lys acylated γGlu-C18 diacid; non-natural residues; C-amide; synthetic construct; SITE 2: note = 2-Aminoisobutyric Acid; SITE 10: note = 3-(4-Pyridyl)-L-alanine; SITE 12: note = L-ornithine; SITE 13: note = alpha-methyl-leucine; SITE 16: note = L-ornithine; SITE 17: note = Lysine is chemically modified through conjugation of the epsilon-amino group of the Lys
B9: Example 1064 (peptide)
chain: B1 chain with Q12X, Y25X, A28E
modifications: Aib, 4Pal, Orn, αMeL, αMeY; lysine acylated C18 diacid; amide; synthetic construct; SITE 2: note = 2-Aminoisobutyric Acid; SITE 10: note = 3-(4-Pyridyl)-L-alanine; SITE 12: note = L-ornithine; SITE 13: note = alpha-methyl-leucine; SITE 16: note = L-ornithine; SITE 17: note = Lysine is chemically modified through conjugation of the epsilon-amino group of the Lys
B10: Example 1065 (peptide)
chain: B1 chain with Q12X, Y25X, A28E
modifications: Aib, 4Pal, Orn, αMeL, αMeY; lipidated Lys; C-terminal amide; synthetic construct; SITE 2: note = 2-Aminoisobutyric Acid; SITE 10: note = 3-(4-Pyridyl)-L-alanine; SITE 12: note = L-ornithine; SITE 13: note = alpha-methyl-leucine; SITE 16: note = L-ornithine; SITE 17: note = Lysine is chemically modified through conjugation of the epsilon-amino group of the Lys
B11: Example 1066 (peptide)
chain: B1 chain with Q12X, Y25X, A28E
modifications: non-natural residues, Glu-γGlu-C18 diacid acylation, C-terminal amide; synthetic construct; SITE 2: note = 2-Aminoisobutyric Acid; SITE 10: note = 3-(4-Pyridyl)-L-alanine; SITE 12: note = L-ornithine; SITE 13: note = alpha-methyl-leucine; SITE 16: note = L-ornithine; SITE 17: note = Lysine is chemically modified through conjugation of the epsilon-amino group of the Lys
B12: Example 1067 (peptide)
chain: B1 chain with Q12X, Y25X, A28E
modifications: non-natural residues; lysine acylated with C18 diacid; C-terminal amide; synthetic construct; SITE 2: note = 2-Aminoisobutyric Acid; SITE 10: note = 3-(4-Pyridyl)-L-alanine; SITE 12: note = L-ornithine; SITE 13: note = alpha-methyl-leucine; SITE 16: note = L-ornithine; SITE 17: note = Lysine is chemically modified through conjugation of the epsilon-amino group of the Lys
B13: Example 1068 (peptide)
chain: B1 chain with Q12X
modifications: C-terminal amide; lysine acylated with (γ-Glu)2-C18 diacid; synthetic construct; SITE 2: note = 2-Aminoisobutyric Acid; SITE 10: note = 3-(4-Pyridyl)-L-alanine; SITE 12: note = L-ornithine; SITE 13: note = alpha-methyl-leucine; SITE 16: note = L-ornithine; SITE 17: note = Lysine is chemically modified through conjugation of the epsilon-amino group of the Lys

Biological target: hGLP-1R (Homo sapiens, UniProt P43220)
Sequence (P43220 24-463): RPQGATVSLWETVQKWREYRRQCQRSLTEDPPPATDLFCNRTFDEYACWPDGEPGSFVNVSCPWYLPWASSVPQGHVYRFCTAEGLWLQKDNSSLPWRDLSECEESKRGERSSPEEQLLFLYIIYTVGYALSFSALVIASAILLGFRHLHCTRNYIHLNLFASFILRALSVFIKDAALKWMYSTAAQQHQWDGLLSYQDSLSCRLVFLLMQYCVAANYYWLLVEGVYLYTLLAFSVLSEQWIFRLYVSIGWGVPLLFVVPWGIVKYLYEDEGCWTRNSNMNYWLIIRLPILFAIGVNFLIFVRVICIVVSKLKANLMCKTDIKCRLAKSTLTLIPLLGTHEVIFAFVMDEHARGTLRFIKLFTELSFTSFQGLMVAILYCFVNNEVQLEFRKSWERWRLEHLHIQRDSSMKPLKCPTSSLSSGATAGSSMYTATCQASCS
Assay: cell-based or functional assay

Going from Y[Aib]QGTFTSD[4Pal]S[Dab][αMeL]LD[Orn]K([γGlu-γGlu-C18 diacid])AQ[αMe4Pal]AFIE[αMe4Pal]LLAGGPSSGAPPPEGSEE-NH2 [Example 1055] to B1, the Relative cAMP EC50 falls from 14.6 nM to 4.25 nM (3.4-fold).

B2 and B3 are within 1.5-fold of each other in Relative cAMP EC50: 5.16 nM for the first, 4.48 nM for the second.

Compared with B4, B5 is 1.6-fold lower in Relative cAMP EC50: 4.61 nM for the first, 2.85 nM for the second.

Compared with B6, B7 is 1.7-fold higher in Relative cAMP EC50: 4.56 nM for the first, 7.75 nM for the second.

B8 and B9 are within 1.5-fold of each other in Relative cAMP EC50: 6.96 nM for the first, 7.89 nM for the second.

B10 and B11 are within 1.5-fold of each other in Relative cAMP EC50: 11.6 nM for the first, 9.8 nM for the second.

First: B12
Second: B13
The Relative cAMP EC50 of the first is 1.5-fold higher: 17.6 nM for the first, 11.6 nM for the second.

B8 and B9 are within 1.5-fold of each other in cAMP Rel EC50 (1% HSA): 626 nM for the first, 912 nM for the second.

B10 and B11 are within 1.5-fold of each other in cAMP Rel EC50 (1% HSA): 2290 nM for the first, 1850 nM for the second.

Going from B12 to B13, the cAMP Rel EC50 (1% HSA) falls from 2610 nM to 1330 nM (2-fold).

Biological target: T1, human GIP receptor (human) (UniProt P48546)
T1 sequence (looked up): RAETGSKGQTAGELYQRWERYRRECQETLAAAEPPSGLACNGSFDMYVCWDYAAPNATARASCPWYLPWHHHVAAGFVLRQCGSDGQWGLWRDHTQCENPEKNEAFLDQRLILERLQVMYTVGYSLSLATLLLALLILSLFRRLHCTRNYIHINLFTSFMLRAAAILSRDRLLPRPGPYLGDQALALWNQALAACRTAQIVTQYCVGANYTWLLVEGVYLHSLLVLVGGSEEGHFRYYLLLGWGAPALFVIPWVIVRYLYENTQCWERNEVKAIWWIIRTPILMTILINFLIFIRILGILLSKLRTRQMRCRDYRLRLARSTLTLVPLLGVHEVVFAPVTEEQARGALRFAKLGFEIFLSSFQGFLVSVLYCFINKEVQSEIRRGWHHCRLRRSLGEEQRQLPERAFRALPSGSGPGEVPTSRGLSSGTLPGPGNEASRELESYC
Assay: cell-based or functional assay

Compared with Y[Aib]QGTFTSD[4Pal]S[Dab][αMeL]LD[Orn]K([γGlu-γGlu-C18 diacid])AQ[αMe4Pal]AFIE[αMe4Pal]LLAGGPSSGAPPPEGSEE-NH2 [Example 1055], B1 is 3.9-fold lower in Relative cAMP EC50: 0.366 nM for the first, 0.0929 nM for the second.

B2 and B3 are within 1.5-fold of each other in Relative cAMP EC50: 0.128 nM for the first, 0.139 nM for the second.

Compared with B4, B5 is 2.1-fold lower in Relative cAMP EC50: 0.468 nM for the first, 0.223 nM for the second.

B6 and B7 are within 1.5-fold of each other in Relative cAMP EC50: 0.656 nM for the first, 0.726 nM for the second.

Going from B8 to B9, the Relative cAMP EC50 rises from 0.318 nM to 0.556 nM (1.7-fold).

Compared with B10, B11 is 1.5-fold higher in Relative cAMP EC50: 0.293 nM for the first, 0.446 nM for the second.

Compared with B12, B13 is 2.2-fold lower in Relative cAMP EC50: 0.471 nM for the first, 0.211 nM for the second.

Going from Y[Aib]QGTFTSD[4Pal]S[Dab][αMeL]LD[Orn]K([γGlu-γGlu-C18 diacid])AQ[αMe4Pal]AFIE[αMe4Pal]LLAGGPSSGAPPPEGSEE-NH2 [Example 1055] to B1, the cAMP Rel EC50 (1% HSA) falls from 78.9 nM to 29.6 nM (2.7-fold).

Going from B2 to B3, the cAMP Rel EC50 (1% HSA) rises from 25.9 nM to 45.6 nM (1.8-fold).

B4 and B5 are within 1.5-fold of each other in cAMP Rel EC50 (1% HSA): 48.9 nM for the first, 44.7 nM for the second.

B6 and B7 are within 1.5-fold of each other in cAMP Rel EC50 (1% HSA): 55.6 nM for the first, 67.5 nM for the second.

First: B8
Second: B9
The cAMP Rel EC50 (1% HSA) of the first is 2.3-fold lower: 26.6 nM for the first, 62.5 nM for the second.

Going from B10 to B11, the cAMP Rel EC50 (1% HSA) rises from 39.1 nM to 69.9 nM (1.8-fold).

Going from B12 to B13, the cAMP Rel EC50 (1% HSA) falls from 86.4 nM to 20.2 nM (4.3-fold).

Biological target: human glucagon receptor (human) (UniProt P47871)
Sequence (P47871 26-477): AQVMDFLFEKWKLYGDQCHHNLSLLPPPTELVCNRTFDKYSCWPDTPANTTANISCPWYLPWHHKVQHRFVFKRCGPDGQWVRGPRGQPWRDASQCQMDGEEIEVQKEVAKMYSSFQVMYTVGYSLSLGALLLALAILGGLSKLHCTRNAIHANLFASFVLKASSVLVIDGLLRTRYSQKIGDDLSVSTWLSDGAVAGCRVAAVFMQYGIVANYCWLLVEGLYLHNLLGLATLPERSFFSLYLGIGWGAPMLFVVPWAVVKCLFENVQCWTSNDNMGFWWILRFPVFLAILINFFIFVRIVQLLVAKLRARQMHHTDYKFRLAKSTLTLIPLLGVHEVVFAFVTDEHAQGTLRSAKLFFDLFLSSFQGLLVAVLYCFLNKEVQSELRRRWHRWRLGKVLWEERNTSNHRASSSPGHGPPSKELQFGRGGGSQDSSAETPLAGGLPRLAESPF
Assay: cell-based or functional assay

Compared with Y[Aib]QGTFTSD[4Pal]S[Dab][αMeL]LD[Orn]K([γGlu-γGlu-C18 diacid])AQ[αMe4Pal]AFIE[αMe4Pal]LLAGGPSSGAPPPEGSEE-NH2 [Example 1055], B1 is 2.1-fold higher in Relative cAMP EC50: 1.88 nM for the first, 3.98 nM for the second.

B2 and B3 are within 1.5-fold of each other in Relative cAMP EC50: 5.29 nM for the first, 5.8 nM for the second.

B4 and B5 are within 1.5-fold of each other in Relative cAMP EC50: 7.52 nM for the first, 9.08 nM for the second.

First: B6
Second: B7
The Relative cAMP EC50 of the first is 2-fold higher: 17.3 nM for the first, 8.77 nM for the second.

B8 and B9 are within 1.5-fold of each other in Relative cAMP EC50: 10.6 nM for the first, 13.7 nM for the second.

B10 and B11 are within 1.5-fold of each other in Relative cAMP EC50: 19.7 nM for the first, 25.4 nM for the second.

Compared with B12, B13 is 2.6-fold lower in Relative cAMP EC50: 12.6 nM for the first, 4.8 nM for the second.

Going from Y[Aib]QGTFTSD[4Pal]S[Dab][αMeL]LD[Orn]K([γGlu-γGlu-C18 diacid])AQ[αMe4Pal]AFIE[αMe4Pal]LLAGGPSSGAPPPEGSEE-NH2 [Example 1055] to B1, the cAMP Rel EC50 (1% HSA) rises from 450 nM to 1650 nM (3.7-fold).

Going from B2 to B3, the cAMP Rel EC50 (1% HSA) falls from 2780 nM to 1450 nM (1.9-fold).

First: B4
Second: B5
The cAMP Rel EC50 (1% HSA) of the first is 6.6-fold lower: 748 nM for the first, 4900 nM for the second.

B6 and B7 are within 1.5-fold of each other in cAMP Rel EC50 (1% HSA): 2910 nM for the first, 2380 nM for the second.

B8 and B9 are within 1.5-fold of each other in cAMP Rel EC50 (1% HSA): 2290 nM for the first, 1940 nM for the second.

B10 and B11 are within 1.5-fold of each other in cAMP Rel EC50 (1% HSA): 3080 nM for the first, 4260 nM for the second.

Compared with B12, B13 is 6.3-fold lower in cAMP Rel EC50 (1% HSA): 1860 nM for the first, 295 nM for the second.
